Results on 3 substances are retold here after patent publication US20240117018A1.

Bounds are passed on as bounds.

Assay in all cases: cell-based or functional assay
In test [1] the target is Env of HIV-1 pseudovirus 3365.v2.c2 (HIV-1).
Test [2] deals with 9004SS_A3_4 Env pseudovirus (HIV-1).
The target in test [3] is MS208.A1 Env pseudovirus (HIV-1).
Test [4] concerns the target ZM135M.PL10a Env pseudovirus (HIV-1).
In test [5] the target is SC422661.8 Env pseudovirus (HIV-1).
The target in test [6] is Ce0393_C3 Env pseudovirus (HIV-1).
Test [7] addresses ZM233M.PB6 Env pseudovirus (HIV-1).
In test [8] the target is Ce2010_F5 Env pseudovirus (HIV-1).
Test [9] has as its target ZM53M.PB12 Env pseudovirus (HIV-1).
Test [10] addresses ZM247v1(Rev-) Env pseudovirus (HIV-1).
For test [11], the target named is HIV-001428-2.42 Env pseudovirus (HIV-1).
For test [12], the target named is HIV-0013095-2.11 Env pseudovirus (HIV-1).
Test [13] has as its target CNE20 Env pseudovirus (HIV-1).
In test [14] the target is QH0692.42 Env pseudovirus (HIV-1).
The target in test [15] is WITO4160.33 Env pseudovirus (HIV-1).
Test [16] has as its target Ce1086_B2 Env pseudovirus (HIV-1).
Test [17] addresses 1006_11_C3_1601 Env pseudovirus (HIV-1).
Test [18] deals with AC10.0.29 Env pseudovirus (HIV-1).
The target of test [19] is RHPA4259.7 Env pseudovirus (HIV-1).
Test [20] addresses CNE58 Env pseudovirus (HIV-1).
For test [21], the target named is CAP210.2.00.E8 Env pseudovirus (HIV-1).
For test [22], the target named is 191955_A11 Env pseudovirus (HIV-1).
The target of test [23] is ZM197M.PB7 Env pseudovirus (HIV-1).
The target in test [24] is CNE21 Env pseudovirus (HIV-1).
For test [25], the target named is 7030102001E5(Rev-) Env pseudovirus (HIV-1).
Test [26] addresses BF1266.431a Env pseudovirus (HIV-1).
For test [27], the target named is REJO4541.67 Env pseudovirus (HIV-1).
In test [28] the target is 928-28 Env pseudovirus (HIV-1).
The target of test [29] is ZM249M.PL1 Env pseudovirus (HIV-1).
The target in test [30] is CNE17 Env pseudovirus (HIV-1).
Test [31] concerns the target T257-31 Env pseudovirus (HIV-1).
Test [32] has as its target Ce1172_H1 Env pseudovirus (HIV-1).
In test [33] the target is CNE52 Env pseudovirus (HIV-1).
Test [34] addresses Ce704809221_1B3 Env pseudovirus (HIV-1).
Test [35] has as its target 249M B10 Env pseudovirus (HIV-1).
Test [36] deals with HIV-16055-2.3 Env pseudovirus (HIV-1).
Test [37] addresses HIV-1 Env pseudovirus 3365.v2.c2 (HIV-1).

What is called IC50 is the concentration at which inhibition is half-maximal. The low end stands for higher potency, the high end for lower potency. In general, IC80 refers to the concentration at which the effect reaches the 80% level. Low values mean an effect from little substance, high ones a need for much substance. With 10-1074 (antibody), in [1], the IC50 was 0.131 µg/mL and the IC80 is 0.45 µg/mL.
Regarding PGT121 (antibody), the IC50 is < 0.001 µg/mL in test [2]; > 50 µg/mL in [3]; 0.716 µg/mL in test [4]; 0.038 µg/mL in [5]; > 50 µg/mL in test [6]; 3.69 µg/mL in [7]. In addition, the IC50 in test [8] is > 50 µg/mL; in test [9] it was < 0.001 µg/mL; in test [10] it was 0.028 µg/mL; in test [11], 0.014 µg/mL; in [12], > 50 µg/mL; in test [13], < 0.001 µg/mL. Also, the IC50 in [14] was 0.302 µg/mL; in test [15], 0.334 µg/mL; in test [16], < 0.001 µg/mL; in test [17], 0.002 µg/mL; in test [18], 0.024 µg/mL; in test [20] it was > 50 µg/mL. In addition, the IC50 in test [21] is 26.3 µg/mL; in test [22] it was > 50 µg/mL; in [23], > 50 µg/mL; in [24], 0.007 µg/mL; in test [25], 0.009 µg/mL; in [26], > 50 µg/mL. Besides, the IC50 was 4.77 µg/mL in test [27]; 44.2 µg/mL in [28]; > 50 µg/mL in test [29]; 7.6 µg/mL in test [30]; > 50 µg/mL in [31]; 2.04 µg/mL in [33]. Moreover, the IC50 was 0.025 µg/mL in test [34], > 50 µg/mL in [35] and 0.153 µg/mL in [36]. The IC80 in test [2] was 0.003 µg/mL; in test [3], > 50 µg/mL; in [4] it was 5.25 µg/mL; in [5], 0.177 µg/mL; in test [6], > 50 µg/mL; in test [8], > 50 µg/mL. Further, the IC80 in [9] is 0.004 µg/mL; in [10] it was 0.082 µg/mL; in test [11], 0.051 µg/mL; in test [12], > 50 µg/mL; in test [13], 0.002 µg/mL; in [14], 2.31 µg/mL. Further, the IC80 was 2.35 µg/mL in test [15]; < 0.001 µg/mL in test [16]; 0.007 µg/mL in test [17]; 0.073 µg/mL in test [18]; 0.035 µg/mL in [19]; > 50 µg/mL in test [20]. Also, the IC80 in test [21] is > 50 µg/mL; in [22], > 50 µg/mL; in [23] it was > 50 µg/mL; in test [24], 0.035 µg/mL; in test [25], 0.027 µg/mL; in test [26], > 50 µg/mL. Further, the IC80 was > 50 µg/mL in test [27]; > 50 µg/mL in test [28]; > 50 µg/mL in test [29]; > 50 µg/mL in test [30]; > 50 µg/mL in [31]; 0.036 µg/mL in test [32]. For the same substance, the IC80 in test [33] is 18.9 µg/mL; in test [34], 0.126 µg/mL; in test [35] it was > 50 µg/mL; in test [36], 4.8 µg/mL.
In test [37], VRC01 (antibody) showed an IC50 (Titer in TZM.bl cells) of 0.06 µg/mL and an IC80 (Titer in TZM.bl cells) of 0.17 µg/mL.
